Assay results from publication PMC10687025, “Endosomal Arl4A attenuates EGFR degradation by binding to the ESCRT-II component VPS36” (Nature Communications, 2023).

B1: His-tagged Arl4A T51N [not stated] / GST-VPS36 (201–386) [not stated] (parent complex)
chain 1: MGNGLSDQTSILSNLPSFQSFHIVILGLDCAGKTTVLYRLQFNEFVNTVPNKGFNTEKIKVTLGNSKTVTFHFWDVGGQEKLRPLWKSYTRCTDGIVFVVDSVDVERMEEAKTELHKITRISENQGVPVLIVANKQDLRNSLSLSEIEKLLAMGELSSSTPWHLQPTCAIIGDGLKEGLEKLHDMIIKRRKMLRQQKKKR
chain 2: KIKDKQGDITEDETIRFKSYLLSMGIANPVTRETYGSGTQYHMQLAKQLAGILQVPLEERGGIMSLTEVYCLVNRARGMELLSPEDLVNACKMLEALKLPLRLRVFDSGVMVIELQSHKEEEMVASALETVSEKGSLTSEEFAKLVGMSVLLAKERLLLAEKMGHLCRDDSVEGLRFYPNLFMTQS
B2: untagged Arl4A T51N (pSG5) [not stated] / VPS36-WT-Myc [not stated] (parent complex)
chain 1: B1 chain 1
chain 2: MDRFVWTSGLLEINETLVIQQRGVRIYDGEEKIKFDAGTLLLSTHRLIWRDQKNHECCMAILLSQIVFIEEQAAGIGKSAKIVVHLHPAPPNKEPGPFQSSKNSYIKLSFKEHGQIEFYRRLSEEMTQRRWENMPVSQSLQTNRGPQPGRIRAVGIVGIERKLEEKRKETDKNISEAFEDLSKLMIKAKEMVELSKSIANKIKDKQGDITEDETIRFKSYLLSMGIANPVTRETYGSGTQYHMQLAKQLAGILQVPLEERGGIMSLTEVYCLVNRARGMELLSPEDLVNACKMLEALKLPLRLRVFDSGVMVIELQSHKEEEMVASALETVSEKGSLTSEEFAKLVGMSVLLAKERLLLAEKMGHLCRDDSVEGLRFYPNLFMTQS

Variants of: B1
Assay: GST pull-down with densitometric quantification; parent: 1; read off a plot

Row | Variant | ratio to parent
1 | chain 2 KIKDKQGDITEDETIRFKSYLLSMGIANPVTRETYGSGTQYHMQLAKQLAGILQVPLEERGGIMSLTEVYCLVNRARGMELLSPEDLVNACKMLEALKLPLRLRVFDSGVMVIELQSHKEEEMVASALETVSEKGSLTSEEAAAAAGMSVLLAKERLLLAEKMGHLCRDDSVEGLRFYPNLFMTQS [chain 2 F142A, chain 2 K144A, chain 2 L145A, chain 2 V146A] | ~0.31
2 | chain 2 KIKDKQGDITEDETIRFKSYLLSMGIANPVTRETYGSGTQYHMQLAKQLAGILQVPLEERGGIMSLTEVYCLVNRARGMELLSPEDLVNACKMLEALKLPLRLRVFDSGVMVIELQSHKEEEMVASALETVSEKGSLTSEEFAKLVGMSVLAAAAALLLAEKMGHLCRDDSVEGLRFYPNLFMTQS [chain 2 L152A, chain 2 K154A, chain 2 E155A, chain 2 R156A] | ~0.09
3 | chain 2 KIKDKQGDITEDETIRFKSYLLSMGIANPVTRETYGSGTQYHMQLAKQLAGILQVPLEERGGIMSLTEVYCLVNRARGMELLSPEDLVNACKMLEALKLPLRLRVFDSGVMVIELQSHKEEEMVASALETVSEKGSAAAAAFAKLVGMSVLLAKERLLLAEKMGHLCRDDSVEGLRFYPNLFMTQS [chain 2 L137A, chain 2 T138A, chain 2 S139A, chain 2 E140A, chain 2 E141A] | ~0.22

Variants of: B2
Assay: co-immunoprecipitation (Myc-Trap) with densitometric quantification; HeLa cell lysates; parent: 1; read off a plot

Row | Variant | ratio to parent
4 | chain 2 MDRFVWTSGLLEINETLVIQQRGVRIYDGEEKIKFDAGTLLLSTHRLIWRDQKNHECCMAILLSQIVFIEEQAAGIGKSAKIVVHLHPAPPNKEPGPFQSSKNSYIKLSFKEHGQIEFYRRLSEEMTQRRWENMPVSQSLQTNRGPQPGRIRAVGIVGIERKLEEKRKETDKNISEAFEDLSKLMIKAKEMVELSKSIANKIKDKQGDITEDETIRFKSYLLSMGIANPVTRETYGSGTQYHMQLAKQLAGILQVPLEERGGIMSLTEVYCLVNRARGMELLSPEDLVNACKMLEALKLPLRLRVFDSGVMVIELQSHKEEEMVASALETVSEKGSLTSEEFAKLVGMSVLAAAAALLLAEKMGHLCRDDSVEGLRFYPNLFMTQS [chain 2 L352A, chain 2 K354A, chain 2 E355A, chain 2 R356A] | ~0.54
